What was measured:
[1] = biological target: T1, 人ROR1蛋白卷曲(Frizzled)域 (recombinant ROR1 Frizzled domain, ACROBiosystems RO1-H5222) (human, UniProt Q01973 165-305); assay: ELISA, recombinant ROR1 Frizzled domain coated at 1 μg/mL, G3 titrated from 20 μg/ml
T1 construct: domain: 卷曲(Frizzled)域; Bought domain protein; also called 卷曲结构域; Frizzled结构域

[2] = biological target: T2, 重组鼠ROR1蛋白 (recombinant mouse ROR1 protein, ACROBiosystems RO1-M5221) (mouse, UniProt Q9Z139 30-403); assay: ELISA, recombinant mouse ROR1 coated at 1 μg/mL, G3 titrated from 15 μg/ml
T2 construct: Bought protein
T2 sequence (Q9Z139 30-403 limits assumed): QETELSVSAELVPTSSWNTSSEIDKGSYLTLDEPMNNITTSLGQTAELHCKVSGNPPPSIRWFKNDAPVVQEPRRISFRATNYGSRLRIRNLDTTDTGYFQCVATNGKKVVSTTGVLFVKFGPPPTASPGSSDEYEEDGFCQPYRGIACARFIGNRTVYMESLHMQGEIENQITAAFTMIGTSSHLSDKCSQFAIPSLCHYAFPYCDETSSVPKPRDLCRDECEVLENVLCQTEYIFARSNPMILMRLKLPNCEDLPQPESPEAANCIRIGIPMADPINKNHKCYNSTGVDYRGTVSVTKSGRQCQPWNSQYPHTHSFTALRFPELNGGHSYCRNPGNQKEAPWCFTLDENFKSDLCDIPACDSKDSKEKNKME

[3] = biological target: T3, 重组人ROR1蛋白 (recombinant human ROR1 protein, ACROBiosystems RO1-H522y) (human, UniProt Q01973 30-403); assay: ELISA, recombinant human ROR1 coated at 1 μg/mL, G3 titrated from 0.6 μg/ml
T3 construct: Bought protein
T3 sequence (Q01973 30-403 limits assumed): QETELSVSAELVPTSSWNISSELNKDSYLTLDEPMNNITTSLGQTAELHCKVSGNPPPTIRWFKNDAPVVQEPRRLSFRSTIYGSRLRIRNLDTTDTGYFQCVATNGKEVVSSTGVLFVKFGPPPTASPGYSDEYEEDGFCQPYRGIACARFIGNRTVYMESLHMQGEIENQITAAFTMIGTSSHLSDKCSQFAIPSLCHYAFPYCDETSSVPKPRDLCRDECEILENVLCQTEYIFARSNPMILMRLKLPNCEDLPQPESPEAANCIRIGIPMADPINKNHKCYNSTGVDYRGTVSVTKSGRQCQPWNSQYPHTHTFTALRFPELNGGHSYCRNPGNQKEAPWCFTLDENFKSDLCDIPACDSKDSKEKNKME

[4] = biological target: T4, 人ROR1 on the cell surface (endogenous on JeKo-1 cells; overexpressed on CHO-K1-hROR1 cells) (human, UniProt Q01973 30-937); assay: Flow cytometry on JeKo-1 cells (endogenous ROR1), G3 titrated from 20 μg/mL
T4 construct: whole, on cells; also called JeKo-1细胞ROR1蛋白; CHO-K1-hROR1细胞表面的ROR1
T4 sequence (Q01973 30-937): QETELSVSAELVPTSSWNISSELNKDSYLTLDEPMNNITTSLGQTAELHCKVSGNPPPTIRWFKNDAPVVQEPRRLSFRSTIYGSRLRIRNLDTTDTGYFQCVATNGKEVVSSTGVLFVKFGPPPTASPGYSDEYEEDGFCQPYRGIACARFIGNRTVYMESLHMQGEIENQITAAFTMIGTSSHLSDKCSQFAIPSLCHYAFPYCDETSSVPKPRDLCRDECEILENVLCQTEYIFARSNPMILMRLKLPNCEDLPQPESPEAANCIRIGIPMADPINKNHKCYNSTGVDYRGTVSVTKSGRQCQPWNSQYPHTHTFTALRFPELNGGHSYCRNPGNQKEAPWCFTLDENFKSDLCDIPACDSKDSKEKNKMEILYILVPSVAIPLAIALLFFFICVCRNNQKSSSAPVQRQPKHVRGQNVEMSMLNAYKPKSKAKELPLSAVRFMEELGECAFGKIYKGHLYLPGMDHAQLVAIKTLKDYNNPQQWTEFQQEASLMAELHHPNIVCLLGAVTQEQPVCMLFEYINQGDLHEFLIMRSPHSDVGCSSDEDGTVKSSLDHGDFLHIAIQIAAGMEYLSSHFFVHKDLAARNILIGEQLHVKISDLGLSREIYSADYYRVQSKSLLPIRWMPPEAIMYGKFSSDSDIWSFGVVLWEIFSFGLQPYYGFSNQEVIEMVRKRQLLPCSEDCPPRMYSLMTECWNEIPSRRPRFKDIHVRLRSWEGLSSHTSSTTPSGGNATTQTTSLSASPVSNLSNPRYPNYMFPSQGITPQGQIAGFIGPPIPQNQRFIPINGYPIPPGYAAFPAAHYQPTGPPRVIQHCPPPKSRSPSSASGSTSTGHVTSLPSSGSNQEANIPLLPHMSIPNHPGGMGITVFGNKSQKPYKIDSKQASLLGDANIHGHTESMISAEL

T1 sequence (Q01973 165-305 limits assumed): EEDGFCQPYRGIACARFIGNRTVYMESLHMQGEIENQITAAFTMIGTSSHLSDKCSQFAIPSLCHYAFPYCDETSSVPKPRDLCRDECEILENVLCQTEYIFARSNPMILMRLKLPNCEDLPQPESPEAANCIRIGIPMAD

binding result [1]: binds
binding result [2]: binds
binding result [3]: binds
binding result [4]: binds
B1: 抗ROR1的全人源单克隆抗体G3 (antibody, human IgG1, kappa, V domains shown)
VH: QVQLQQWGAGLLKPSETLSLTCAVYGGSFSGYYWSWIRQPPGKGLEWIGEINHSGSTSYNPSLKSRVTISVDTSKNQFSLKLSSVTAADTAVYYCARGHSSGWYRRYFDLWGRGTLVTVSS
VL: IVLTQSPATLSLSPGERATLSCRASQSVSSYLAWYQQKPGQAPRLLIYDASNRATGIPAKFSGSGSGTDFTLTISSLEPEDFAVYYCQQRSNWPPTFGGGTKVEIKR
notes: Full-length fully human IgG1/kappa, expressed in Expi-CHO-S and purified on Protein A (150 kDa); also called G3单克隆抗体; 抗人ROR1抗体G3
